Source: paper PMC8857470, “Molecular insights into the maturation of phosphodiesterase 6 by the specialized chaperone complex of HSP90 with AIPL1” (The Journal of Biological Chemistry, 2022)

Target: full-length human HSP90β (residues 1–724), pET15b construct (human) (UniProt P08238)
Assay: cross-linking + other: mass photometry; DSS (0.5 mM) or glutaraldehyde (0.03%) added to HSP90β (15 μM), AIPL1 (25 μM) or their mixture (HSP90_(AMPPNP)/AIPL1), 15 to 30 min at 25 °C, 25 mM Hepes pH 7.5, 200 mM NaCl, 5% glycerol, 1 mM TCEP; products on 3 to 8% Tris-acetate gel and by mass photometry

Chain of full-length human HSP90β (residues 1–724), pET15b construct, P08238 1-724 (natural protein; other documents disagree on this pair) (P08238 whole entry, the tested form may be a part): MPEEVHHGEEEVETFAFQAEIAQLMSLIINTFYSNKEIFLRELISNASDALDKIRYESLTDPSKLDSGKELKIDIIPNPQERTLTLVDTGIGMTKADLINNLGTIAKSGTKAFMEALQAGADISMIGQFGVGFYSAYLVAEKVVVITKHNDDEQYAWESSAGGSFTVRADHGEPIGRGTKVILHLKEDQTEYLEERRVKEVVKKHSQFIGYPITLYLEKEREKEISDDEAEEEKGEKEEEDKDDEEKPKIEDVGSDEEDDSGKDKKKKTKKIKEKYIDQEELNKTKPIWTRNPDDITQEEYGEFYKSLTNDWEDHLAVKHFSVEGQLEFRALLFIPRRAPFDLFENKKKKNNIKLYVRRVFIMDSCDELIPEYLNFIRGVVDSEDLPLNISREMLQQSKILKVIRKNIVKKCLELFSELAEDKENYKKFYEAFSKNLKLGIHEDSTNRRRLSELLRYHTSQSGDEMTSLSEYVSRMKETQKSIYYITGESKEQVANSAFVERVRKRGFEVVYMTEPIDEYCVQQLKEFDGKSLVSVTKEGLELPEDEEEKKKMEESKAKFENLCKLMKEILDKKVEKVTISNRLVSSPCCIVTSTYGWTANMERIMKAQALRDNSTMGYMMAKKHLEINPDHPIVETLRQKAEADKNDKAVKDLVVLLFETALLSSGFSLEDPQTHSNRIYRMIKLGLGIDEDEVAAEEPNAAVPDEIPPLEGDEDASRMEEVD

full-length human HSP90β (residues 1–724), pET15b construct, P08238 1-724 (natural protein; other documents disagree on this pair)
stoichiometry N: 2
